Key:
[1] = test system: glycocalicin, platelet lysate, KG-1 cell lysate, Raji cell lysate; assay: Western blot on glycocalicin and cell lysates; type: binding, human
Procedure: Antibodies against GPIbα (CD42b) recognize platelet lysate and glycocalicin and but not KG-1 cell lysate (a Y1 binding positive myeloid cell line) or Raji cell lysate (a B cell line that is negative for Y1 binding at concentrations at which KG-1 cells are positive for Y1 binding). […] (FIG. 20).
The nitrocellulose membrane was blocked using 5% skim milk for one hour at room temperature. The membrane was then washed 3 times for 5 minutes each with 0.05% Tween 20 in PBS at room temperature. The membrane was incubated with 5 μg/ml Y1-biotin (or 181-biotin) in 2% skim milk in PBS for one hour at room temperature. The membrane was then washed 3 times for 5 minutes each with cold 0.05% Tween 20 in PBS in the cold room (about 4 to about 10° C.). The membrane was then incubated in the cold room with a 1:1000 dilution of SAV-HRP (streptavidin-HRP) (at a final concentration of […]) in 2% skim milk, 0.05% Tween. The dilution was carried out at room temperature (about 25° C.), then the diluted SAV-HRP was cooled on ice for 10-15 minutes before use. The incubation was carried out for 1 hour with gentle shaking. After the incubation with SAV-HRP, the membrane was washed, as above. The membrane was then incubated with Super Signal mixture (Pierce) for 5 minutes as directed in the commercial protocol, then excess solution was dried. […]

platelet GPIbα [2] = assay: Western blot/FACS of endoprotease-cleaved platelet GPIbα and glycocalicin; type: binding, human; conditions: immunoblots and FACS
Text: (§1) Immunoblotting and endoprotease cleavage techniques were used to identify the epitope for Y1 on the surface membrane of platelets.
(§2) The enzyme O-Sialoglycoprotein endoprotease from Pasteurella haemolytica (Cedarlan CLE 100) selectively cleaves human platelet GPIb and specifically cleaves only proteins containing sialylated, O-linked glycans. […] This enzyme has been reported to cleave GPIb, which is heavily O-glycosylated, but not GPIIb-IIIa or other receptors on platelets. GPIbα was digested with O-Sialoglycoprotein endoprotease in order to further establish the binding of Y1 to the molecule.
(§3) Mocarhagin [Sigma L4515a] is a cobra venom metalloproteinase that cleaves platelet GPIbα specifically at a single site between residues glu-282 and asp-283, thereby generating two stable products: a ˜45-kDa N-terminal fragment (His1-Glu282), which is released into the supernatant, and a membrane-bound ˜95 kDa C-terminal fragment.
(§4) Cathepsin G (Sigma C4428), a neutrophil serine protease, cleaves glycocalicin at a first cleavage site between residues Leu-275 and Tyr-276 and at a second cleavage site between residues Val-296 and Lys-297. Cathepsin G treatment of glycocalicin generates two N-terminal fragments: a small N-terminal 42 kDa fragment (His1-Leu275), a large N-terminal 45 kDa N-terminal fragment (His1-Val-296), and corresponding ˜95 kDa C-terminal fragments. (FIG. 1).
(§5) For mocarhagin digestion, 10^8 washed platelets in TS buffer (0.01 M Tris, 0.15 M sodium chloride, pH 7.4) containing 1 mM calcium chloride were treated with 12 μg/ml mocarhagin (final concentration) for 1 hour at 22° C. and digestion was stopped by adding EDTA to 0.01 M.
(§6) 10^6 platelets in 0.1 M Tris buffer pH 7.4 containing 0.2% albumin and protease inhibitors (10 μM leupeptin, 0.24 mM PMSF) was incubated with 0.14 mg/ml O-Sialoglycoprotein endoprotease (final concentration) for 45 min at 37° C. and digestion was stopped by adding sample buffer and boiling. The sample buffer used contained 3% SDS, 12% glycerol, 50 mM Tris HCl, 2% β-mercaptoethanol, and 0.03% bromphenol blue.
(§7) For mocarhagin digestion, glycocalicin in TS buffer containing 1 mM calcium chloride was incubated with 10 μg/ml mocarhagin (final concentration) for 1 hour at 22° C. and digestion was stopped by adding EDTA to 0.01 M.
(§8) For cathepsin G digestion, glycocalicin in TS buffer containing 1 mM calcium chloride was incubated with 3.4 μg/ml cathepsin G (final concentration) for 4 hour at 22° C. and digestion was stopped by adding PMSF to 1 mM.

platelet GPIbα [3] = biological target: T1, platelet GPIbα (Homo sapiens, UniProt P07359); assay: as above; type: binding
T1 construct: endogenous in cells; host or cells: washed human platelets (blood-bank platelet concentrate)
Text: as §1, §2, §3, §4, §5, §6, §7, §8

primary leukemia cells = assay: FACS analysis of binding to primary leukemia cells of patients; design: species or system human
Procedure: Analysis of binding of scFv Y1 antibodies and anti-CD162 antibodies to diseased cells also illustrates that scFv Y1 has binding characteristics different from those of anti-CD-162 antibodies. […] Table F). Y1 binds to the leukemic cells in 10 of 12 samples. In contrast, anti-CD162 bound only 5 out of 12 samples. […] Thus, it may be concluded that, in leukemic cells, scFv Y1 binds to a ligand other than that recognized by anti-CD162.
Samples provided from hospitals. Patients sample 30 μl/tube. Add 5 μl/tube of CD33-APC (for AML) or CD19-APC (for B-CLL) or CD38-APC (for Multiple Myeloma). Add 5 μl/tube of CD45-PerCp and 5 μl of scFv-Y1 or control scFv-N31 or CD162-PE (KPL1). Incubate tubes 30 minutes at 4° C. with low shaking. Wash by adding 2 ml PBS and spin 5 minutes at 1200 rpm. Discard supernatant.
For a one step assay continue with the lysis step:
Add 500 μl BD Lysine solution diluted 1:10 with ddH2O (300 μl to patient sample). Vortex at high speed and incubate 12 minutes at 4° C. Wash as above. Discard supernatant. And add 500 μl PBS. The samples are read in the FACS using blood sample acquisition setup according to international standards.
For two or more assays: working buffer is PBS+1% BSA+0.05% sodium azide. Incubations and wash as above.
Lysis of the red blood cells is the final step in the assay, followed by resuspension with 500 μl PBS.

B1: Y1 scFv: fully human scFv clone binding platelets and myelogenous leukemia cells; SEQ ID NO: 25, heavy chain CDR3 SEQ ID NO: 8 (protein, listed as Homo sapiens)
scFv: MKYLLPTAAAGLLLLAAQPAMAEVQLVESGGGVVRPGGSLRLSCAASGFTFDDYGMSWVRQAPGKGLEWVSGINWNGGSTGYADSVKGRFTISRDNAKNSLYLQMNSLRAEDTAVYYCARMRAPVIWGQGTLVTVSRGGGGSGGGGSGGGGSSELTQDPAVSVALGQTVRITCQGDSLRSYYASWYQQKPGQAPVLVIYGKNNRPSGIPDRFSGSSSGNTASLTITGAQAEDEADYYCNSRDSSGNHVVFGGGTKLTVLGAAAEQKLISEEDLNGAA
recognition of glycocalicin, platelet lysate, KG-1 and Raji cell lysate [1]: recognized both glycocalicin, platelet lysate, and KG-1 cells, but not Raji cell extract | binding to washed platelets after O-Sialoglycoprotein endoprotease (platelet GPIbα [2]): abolishes binding | binding to cathepsin G fragments of glycocalicin (platelet GPIbα [3]; Western blot): bound to the larger N-terminal fragment (His 1-Val-296), but not to the smaller N-terminal fragment (His1-Leu275) | binding after mocarhagin treatment of washed platelets (platelet GPIbα [3]; Western blot of platelet lysates): binding of Y1 to the N-terminal ˜45 kDa tryptic fragment | leukemia patient samples whose leukemic cells are bound (primary leukemia cells; 12 patient samples, FACS): 10 of 12 | % Positive (primary leukemia cells; AML patients): 80% | Number Positive (primary leukemia cells; AML patients): 60/75 | % Negative (primary leukemia cells; B-ALL, Bone Marrow): 67% | % Positive (primary leukemia cells; B-ALL, Bone Marrow): 33% | Number Positive (primary leukemia cells; B-ALL, Bone Marrow): 3/9 | % Negative (primary leukemia cells; B-CLL, Peripheral Blood): 26% | % Positive (primary leukemia cells; B-CLL, Peripheral Blood): 74% | Number Positive (primary leukemia cells; B-CLL, Peripheral Blood): 17/23 | % Positive (primary leukemia cells; B-Leukemia patients): 67% | Number Positive (primary leukemia cells; B-Leukemia patients): 29/43 | % Negative (primary leukemia cells; B-Lymphoma, Peripheral Blood): 38% | % Positive (primary leukemia cells; B-Lymphoma, Peripheral Blood): 62% | Number Positive (primary leukemia cells; B-Lymphoma, Peripheral Blood): 5/8 | % Positive (primary leukemia cells; Multiple Myeloma patients): 100% | Number Positive (primary leukemia cells; Multiple Myeloma patients): 16/16 | % Negative (primary leukemia cells; Pre-B-ALL, Bone Marrow): 0% | % Positive (primary leukemia cells; Pre-B-ALL, Bone Marrow): 100% | Number Positive (primary leukemia cells; Pre-B-ALL, Bone Marrow): 3/3

From US20040002450A1, “Y17 - isolated molecules comprising epitopes containing sulfated moieties, antibodies to such epitopes, and uses thereof” (priority 2000, published 2004)
